Results as given in the supplement of paper PMC10567573.

B1: BRF1 (parent)
chain: CTACGSVLEDNIIVSEVQFVESSG
B2: TSN (parent)
chain: FLAAEQDIREEIRKVVQSLEQTAR

Variants of: B1
Assay: protein stability index of a GFP-peptide fusion (GPS, HEK-293T) (PSI 1-6); higher = more stable
Details: c terminus: a fixed tail appended
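Note: lentivirally expressed fusions sorted by FACS into six bins by GFP to DsRed ratio, PSI derived from sequencing read proportions per bin multiplied by bin number.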

Compared with CTACGSVLEDNIIVSEVQFAESSG [V20A], CTACGSVLEDNIIVSEVQFCESSG [V20C] is lower in protein stability index: 3.65 for the first, 2.21 for the second.

First: CTACGSVLEDNIIVSEVQFDESSG [V20D]
Second: CTACGSVLEDNIIVSEVQFEESSG [V20E]
The protein stability index of the first is higher: 4.52 for the first, 3.88 for the second.

Compared with CTACGSVLEDNIIVSEVQFFESSG [V20F], CTACGSVLEDNIIVSEVQFGESSG [V20G] is higher in protein stability index: 3.15 for the first, 3.6 for the second.

First: CTACGSVLEDNIIVSEVQFHESSG [V20H]
Second: CTACGSVLEDNIIVSEVQFIESSG [V20I]
The protein stability index of the first is higher: 3.23 for the first, 3.11 for the second.

Going from CTACGSVLEDNIIVSEVQFKESSG [V20K] to CTACGSVLEDNIIVSEVQFLESSG [V20L], the protein stability index rises from 3.44 to 3.97.

Going from CTACGSVLEDNIIVSEVQFMESSG [V20M] to CTACGSVLEDNIIVSEVQFNESSG [V20N], the protein stability index rises from 2.55 to 2.94.

First: CTACGSVLEDNIIVSEVQFPESSG [V20P]
Second: CTACGSVLEDNIIVSEVQFQESSG [V20Q]
The protein stability index of the first is higher: 3.48 for the first, 3.35 for the second.

Going from CTACGSVLEDNIIVSEVQFRESSG [V20R] to CTACGSVLEDNIIVSEVQFSESSG [V20S], the protein stability index rises from 3.18 to 4.23.

Going from CTACGSVLEDNIIVSEVQFTESSG [V20T] to CTACGSVLEDNIIVSEVQFYESSG [V20Y], the protein stability index falls from 3.58 to 2.44.

First: CTACGSVLEDNIIVSEVQFVASSG [E21A]
Second: CTACGSVLEDNIIVSEVQFVCSSG [E21C]
The protein stability index of the first is lower: 2.58 for the first, 3.27 for the second.

Going from CTACGSVLEDNIIVSEVQFVDSSG [E21D] to CTACGSVLEDNIIVSEVQFVFSSG [E21F], the protein stability index falls from 3.19 to 1.87.

First: CTACGSVLEDNIIVSEVQFVGSSG [E21G]
Second: CTACGSVLEDNIIVSEVQFVHSSG [E21H]
The protein stability index of the first is higher: 3.58 for the first, 2.88 for the second.

First: CTACGSVLEDNIIVSEVQFVISSG [E21I]
Second: CTACGSVLEDNIIVSEVQFVKSSG [E21K]
The protein stability index of the first is lower: 2.28 for the first, 2.94 for the second.

First: CTACGSVLEDNIIVSEVQFVLSSG [E21L]
Second: CTACGSVLEDNIIVSEVQFVMSSG [E21M]
The protein stability index of the first is higher: 2.7 for the first, 2.4 for the second.

Going from CTACGSVLEDNIIVSEVQFVNSSG [E21N] to CTACGSVLEDNIIVSEVQFVPSSG [E21P], the protein stability index falls from 3.51 to 3.38.

Going from CTACGSVLEDNIIVSEVQFVQSSG [E21Q] to CTACGSVLEDNIIVSEVQFVRSSG [E21R], the protein stability index rises from 3.02 to 3.53.

First: CTACGSVLEDNIIVSEVQFVSSSG [E21S]
Second: CTACGSVLEDNIIVSEVQFVTSSG [E21T]
The protein stability index of the first is higher: 2.54 for the first, 2.34 for the second.

First: CTACGSVLEDNIIVSEVQFVVSSG [E21V]
Second: CTACGSVLEDNIIVSEVQFVWSSG [E21W]
The protein stability index of the first is higher: 2.82 for the first, 2.05 for the second.

First: CTACGSVLEDNIIVSEVQFVYSSG [E21Y]
Second: CTACGSVLEDNIIVSEVQFVEASG [S22A]
The protein stability index of the first is lower: 1.77 for the first, 3.73 for the second.

Compared with CTACGSVLEDNIIVSEVQFVECSG [S22C], CTACGSVLEDNIIVSEVQFVEDSG [S22D] is higher in protein stability index: 1.88 for the first, 3.7 for the second.

Compared with CTACGSVLEDNIIVSEVQFVEESG [S22E], CTACGSVLEDNIIVSEVQFVEFSG [S22F] is lower in protein stability index: 3.83 for the first, 2.32 for the second.

First: CTACGSVLEDNIIVSEVQFVEGSG [S22G]
Second: CTACGSVLEDNIIVSEVQFVEHSG [S22H]
The protein stability index of the first is lower: 2.97 for the first, 3.06 for the second.

Compared with CTACGSVLEDNIIVSEVQFVEISG [S22I], CTACGSVLEDNIIVSEVQFVEKSG [S22K] is higher in protein stability index: 1.52 for the first, 3.81 for the second.

Compared with CTACGSVLEDNIIVSEVQFVELSG [S22L], CTACGSVLEDNIIVSEVQFVEMSG [S22M] is higher in protein stability index: 2.09 for the first, 2.44 for the second.

Going from CTACGSVLEDNIIVSEVQFVENSG [S22N] to CTACGSVLEDNIIVSEVQFVEPSG [S22P], the protein stability index rises from 3.07 to 3.39.

First: CTACGSVLEDNIIVSEVQFVEQSG [S22Q]
Second: CTACGSVLEDNIIVSEVQFVERSG [S22R]
The protein stability index of the first is higher: 3.38 for the first, 2.18 for the second.

First: CTACGSVLEDNIIVSEVQFVETSG [S22T]
Second: CTACGSVLEDNIIVSEVQFVEVSG [S22V]
The protein stability index of the first is lower: 2.33 for the first, 2.75 for the second.

Compared with CTACGSVLEDNIIVSEVQFVEWSG [S22W], CTACGSVLEDNIIVSEVQFVEYSG [S22Y] is lower in protein stability index: 2.66 for the first, 2.38 for the second.

First: CTACGSVLEDNIIVSEVQFVESAG [S23A]
Second: CTACGSVLEDNIIVSEVQFVESCG [S23C]
The protein stability index of the first is higher: 3.14 for the first, 2.9 for the second.

Going from CTACGSVLEDNIIVSEVQFVESEG [S23E] to CTACGSVLEDNIIVSEVQFVESFG [S23F], the protein stability index falls from 2.91 to 2.42.

Compared with CTACGSVLEDNIIVSEVQFVESHG [S23H], CTACGSVLEDNIIVSEVQFVESIG [S23I] is lower in protein stability index: 3.24 for the first, 2.88 for the second.

Compared with CTACGSVLEDNIIVSEVQFVESKG [S23K], CTACGSVLEDNIIVSEVQFVESLG [S23L] is lower in protein stability index: 4.04 for the first, 3.03 for the second.

First: CTACGSVLEDNIIVSEVQFVESMG [S23M]
Second: CTACGSVLEDNIIVSEVQFVESNG [S23N]
The protein stability index of the first is lower: 2.81 for the first, 3.15 for the second.

First: CTACGSVLEDNIIVSEVQFVESPG [S23P]
Second: CTACGSVLEDNIIVSEVQFVESQG [S23Q]
The protein stability index of the first is lower: 2.72 for the first, 3.55 for the second.

Going from CTACGSVLEDNIIVSEVQFVESTG [S23T] to CTACGSVLEDNIIVSEVQFVESVG [S23V], the protein stability index falls from 3.17 to 2.63.

First: CTACGSVLEDNIIVSEVQFVESWG [S23W]
Second: CTACGSVLEDNIIVSEVQFVESYG [S23Y]
The protein stability index of the first is higher: 2.53 for the first, 2.51 for the second.

Going from CTACGSVLEDNIIVSEVQFVESSA [G24A] to CTACGSVLEDNIIVSEVQFVESSC [G24C], the protein stability index falls from 3.67 to 3.09.

Compared with CTACGSVLEDNIIVSEVQFVESSD [G24D], CTACGSVLEDNIIVSEVQFVESSE [G24E] is higher in protein stability index: 3.38 for the first, 3.58 for the second.

First: CTACGSVLEDNIIVSEVQFVESSF [G24F]
Second: CTACGSVLEDNIIVSEVQFVESSH [G24H]
The protein stability index of the first is lower: 2.03 for the first, 2.25 for the second.

First: CTACGSVLEDNIIVSEVQFVESSI [G24I]
Second: CTACGSVLEDNIIVSEVQFVESSK [G24K]
The protein stability index of the first is lower: 3.06 for the first, 3.25 for the second.

First: CTACGSVLEDNIIVSEVQFVESSL [G24L]
Second: CTACGSVLEDNIIVSEVQFVESSM [G24M]
The protein stability index of the first is lower: 3.01 for the first, 3.13 for the second.

First: CTACGSVLEDNIIVSEVQFVESSN [G24N]
Second: CTACGSVLEDNIIVSEVQFVESSP [G24P]
The protein stability index of the first is lower: 3.01 for the first, 3.28 for the second.

First: CTACGSVLEDNIIVSEVQFVESSQ [G24Q]
Second: CTACGSVLEDNIIVSEVQFVESSR [G24R]
The protein stability index of the first is higher: 2.95 for the first, 2.64 for the second.

Going from CTACGSVLEDNIIVSEVQFVESSS [G24S] to CTACGSVLEDNIIVSEVQFVESSV [G24V], the protein stability index falls from 3.08 to 2.45.

Compared with CTACGSVLEDNIIVSEVQFVESSW [G24W], CTACGSVLEDNIIVSEVQFVESSY [G24Y] is higher in protein stability index: 2.09 for the first, 2.89 for the second.

Variants of: B2
Assay: as above
Details: c terminus: a fixed tail appended

Going from ALAAEQDIREEIRKVVQSLEQTAR [F1A] to CLAAEQDIREEIRKVVQSLEQTAR [F1C], the protein stability index falls from 2.35 to 1.9.

Compared with DLAAEQDIREEIRKVVQSLEQTAR [F1D], ELAAEQDIREEIRKVVQSLEQTAR [F1E] is lower in protein stability index: 2.49 for the first, 2.45 for the second.
